Four substances from US20190032056 can be followed below.

Data set [1] addresses complement Factor D (fD) (Homo sapiens) (UniProt P00746). Briefly: flow. As to conditions: 2'-F G, 2'-OMe A,C,U, 37 C.
The target is the same in data set [2]. Briefly: inhibition. The settings on record: control oligo.
Data set [3] deals with complement Factor D (fD) in C1q-depleted human serum (Homo sapiens) (UniProt P00746). Briefly: inhibition. As to conditions: hemolysis; non-specific control oligo.
The mark [4] stands for this setting: SB1T, 100 nM AFD Fab reduces signal about 75-90%.

For orientation: Kd means the free concentration of one partner at which half of the binding sites on the other are occupied at equilibrium, for simple one-to-one binding. Read a high Kd as a looser complex. Broadly, the IC50 is the midpoint of a concentration-inhibition curve. Low values mean higher potency, high ones lower potency.

Chain of complement Factor D (fD) (Homo sapiens) (P00746 26-253): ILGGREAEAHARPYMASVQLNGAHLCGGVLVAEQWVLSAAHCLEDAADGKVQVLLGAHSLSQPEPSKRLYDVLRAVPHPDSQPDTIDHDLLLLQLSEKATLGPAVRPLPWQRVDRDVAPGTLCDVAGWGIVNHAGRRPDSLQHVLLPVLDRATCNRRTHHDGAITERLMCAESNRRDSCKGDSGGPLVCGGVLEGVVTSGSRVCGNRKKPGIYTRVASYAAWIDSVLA
Chain of complement Factor D (fD) in C1q-depleted human serum (Homo sapiens) (P00746 26-253): as above

As for “GGGAGUGUGUACGAGGCAUUAGGCCGCCNNNNNNNNNNNNNNNNNNNNNNNNNNNNNNGGCGGCUUUGAUACUUGAUCGCCCUAGAAGC [N30S library round 6]”, the Kd in data set [1] (SB1T with BSA and ssDNA, bead-immobilized fD) was determined as 0.0344 µM. In turn, C8 non-specific control oligo came in with an activity (% esterase activity) in data set [2] of 105. Besides, in data set [3], the half-inhibitory concentration (IC50) is more than 0.16 µM.

For “GGGAGUGUGUACGAGGCAUUAGGCCGCCNNNNNNNNNNNNNNNNNNNNNNNNNNNNNNGGCGGCUUUGAUACUUGAUCGCCCUAGAAGC [N30S library round 7]”, the equilibrium dissociation constant (Kd) in data set [1] (setting [4]) was found to be 0.0451 µM.

As to “GGGAGUGUGUACGAGGCAUUAGGCCGCCNNNNNNNNNNNNNNNNNNNNNNNNNNNNNNGGCGGCUUUGAUACUUGAUCGCCCUAGAAGC [N30S library round 8]”, the equilibrium dissociation constant (Kd) in data set [1] (setting [4]) is 0.0088 µM.
